These results are taken from publication PMC5389604.

The data set concerns the target T1, RarA (MgsA) (Escherichia coli, UniProt P0AAZ4 1-447).
T1 sequence: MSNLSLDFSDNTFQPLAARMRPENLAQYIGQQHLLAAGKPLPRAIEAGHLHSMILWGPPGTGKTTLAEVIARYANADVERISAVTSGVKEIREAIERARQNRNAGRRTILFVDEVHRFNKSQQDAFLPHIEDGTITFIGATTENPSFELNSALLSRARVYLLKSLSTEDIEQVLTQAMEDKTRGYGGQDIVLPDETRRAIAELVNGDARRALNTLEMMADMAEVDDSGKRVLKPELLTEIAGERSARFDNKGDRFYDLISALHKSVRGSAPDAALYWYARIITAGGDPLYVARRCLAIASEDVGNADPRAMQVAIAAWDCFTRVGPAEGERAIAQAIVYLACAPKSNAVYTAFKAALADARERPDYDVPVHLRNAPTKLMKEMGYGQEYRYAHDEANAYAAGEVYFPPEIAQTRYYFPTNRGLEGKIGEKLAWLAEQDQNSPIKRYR
The data set can be described thus: fluorescence polarization. Background: Fluorescence polarisation rises when a labelled molecule tumbles more slowly, as on binding a larger partner.

As usually defined, the Kd is a measure of binding affinity in units of concentration. A lower Kd goes with tighter binding. Regarding ACACAGAAGGAGACGG (ssDNA) [oANP031_F 16 nt ssDNA], the Kd was found to be 890 ± 28 nM.
